Biological target: T1, Flag-tagged Iso1, MC1R-TUBB3 in-frame intergenic splice chimera (human)
T1 construct: numbers count on: MC1R-002; Tubulin-β-III, human; A BamHI site in the TUBB3 part was ablated by site-directed mutagenesis (ATC to ATT by the printed primer, silent by my reading); also called Flag-Iso1; MC1R-TUBB3 chimeric isoform Iso1; source: HEK293T, transfected (pcDNA3); not shown: Flag, N-terminal, kept
Assay: radioligand binding; equilibrium competition binding on transfected HEK293T cells, 24 h after transfection, serum deprived 3 h; 125I-NDP-MSH 5x10^-11 M with unlabelled NDP-MSH from 10^-12 to 10^-7 M
Conditions: one partner purified

B1: [Nle4, D-Phe7]-αMSH (NDP-MSH), 125I-labelled (peptide)
chain: SYSLEHFRWGKPV
modifications: not fully specified; Nle at position 4; D-Phe at position 7; 125I label (tracer)
  Kd: 590 pM
